{"source": "the DeepSol protein solubility set", "data": [{"test": "soluble on expression in E. coli; label from the status in PepcDB or PDB records", "values": [{"sequence": "MSLNSISHIPKAEIHVHLEATITPSLCRKFAKRNKVILSDDFFGSEYAYQWEDFYDFLKKYDIVTSVIHTPEDYYELTYAYLKECASHNVLYVEAMVSSTHAKAKGMTYQSFLDSIQEASLNAERDFGIVSRYLMNGIRHLGPESVQGTAEEVLKNPHPAIVGFGLAGDELHFPPHLFSKTFDMLKEENFPITVHAGEWDGPENIRKAINLLHPTRLGHGVRSIEDLDLVKEIIEKDIVLETCPTSNIATKIYENYENHPVKKLHELGAKVTVNSDDPPFFNATIQGEYEAMSKIGFADDVLISMTRNAIEYSFLDNQKKKEVLTKLNEGHHHHHH", "soluble on expression in E. coli": "soluble"}, {"sequence": "MTTRKPFIICDFDGTITMNDNIINIMKTFAPPEWMALKDGVLSKTLSIKEGVGRMFGLLPSSLKEEITSFVLEDAKIREGFREFVAFINEHEIPFYVISGGMDFFVYPLLEGIVEKDRIYCNHASFDNDYIHIDWPHSCKGTCSNQCGCCKPSVIHELSEPNQYIIMIGDSVTDVEAAKLSDLCFARDYLLNECREQNLNHLPYQDFYEIRKEIENVKEVQEWLQNKNAGESSLKLEHHHHHH", "soluble on expression in E. coli": "soluble"}, {"sequence": "MKRIQEIQQNLERLAEMDEHLEQCEEWNVVAQEIVQKLSTIRKEVERSAAPTPLLLTPPGSCGSGSIYSDISSEMTNVYTEAVEAYDQQIYSRCVRLVEGANRESPVDMCLISLAHHSYAEMVNAASGSDDAMKFAKWWAEFLDSVEAGRGHSEKIELLDYEAVAYEKIVKLGGVADVEKLIEVVVRSYEMVTLLNRPYHILSLQKLFRLTNVLSSSEVDLESDAFSSAKTVVLTGIQNVLRDRKKFAQLGKFNEHNMKIAMRRTAQPDFRVRYCEKR", "soluble on expression in E. coli": "soluble"}, {"sequence": "MSLKNFVVKDIGIPKYIENMVGKGDFYLLNKRKLNSHKGQNGKVLIIGGSKEYHGAPVFSGLAASKFADIVTVASVSNVIGTVRNYPELMPYELNGEYIGQKNTDELLKLSKNYDCTVLGSGLSLNSSTKEFVNSYLNETNGKVVIDADAIKLIDYGNFEFKNNFIFTPHKKEFEYMKDYVKKYAKNQGFNSTVVLKGSIDIVFDPDNIKMNITGNQGMTAGGTGDILCGIIGAICACNDAFPSACCGTYINGYCGDLLEKEYGYYYNSTDIIKILPKALKELLYEGHHHHHH", "soluble on expression in E. coli": "soluble"}, {"sequence": "MGSSHHHHHHSSGLVPRGSHMFADVETTCCARRTLTTIDEVPGMADETALLDWLGTMREKQPVWQDRYGVWHVFRHADVQTVLRDTATFSSDPTRVIEGASPTPGMIHEIDPPEHRALRKVVSSAFTPRTISDLEPRIRDVTRSLLADAGESFDLVDVLAFPLPVTIVAELLGLPPMDHEQFGDWSGALVDIQMDDPTDPALAERIADVLNPLTAYLKARCAERRADPGDDLISRLVLAEVDGRALDDEEAANFSTALLLAGHITTTVLLGNIVRTLDEHPAHWDAAAEDPGRIPAIVEEVLRYRPPFPQMQRTTTKATEVAGVPIPADVMVNTWVLSANRDSDAHDDPDRFDPSRKSGGAAQLSFGHGVHFCLGAPLARLENRVALEEIIARFGRLTVDRDDERLRHFEQIVLGTRHLPVLAGSSPRQSA", "soluble on expression in E. coli": "soluble"}, {"sequence": "MPHIVKSTILDAPTDAAWSVLRDFNGHDRWHPAVATSMIERAQPSDKIGCVRRFKLKDGSELREQLLALSDLEQSFSYCLLDTPVPMFNYVAHVRLLPVTDGDRTFWHWESRFTTRPEDKDRITHMVAEDIYQAGFEAIRRHLKEAASSWPLEHHHHHH", "soluble on expression in E. coli": "soluble"}, {"sequence": "MLQPTPTLTDQVAGQLARAIADGAYAVGAKLPTGRALAQQYGVSAAVIREATERLRAQGLVQSRQGSGCTVVARMPAGGFQVPAGGLDRAHLARVYELRMELEGGAAALAARRRGAADLDRMRQALQALQREPIEPEQGVVHDVGFHVAIATATANPYYLQLLQYLNLQLRQAVETARANTRRQGDPVHAVHEEHLAIYRAIERGEPEAARAAAQHHLLGAAARLQLDMNL", "soluble on expression in E. coli": "not soluble"}, {"sequence": "MGSDKIHHHHHHMKTNTSNQTTPQLATIKLFAMGCHIQISLYTTRLSAQYSQMTIDQQVAFLTSDVQQRLAYWEHIFSRFDDTSELMRLNNRGDQWSEVSSELFEVLQHAIHFVLKTQGLVTPTLLQPLWAAGYKHSFETLPKISMPSLPFTGLSAPSNVQDTTSANHANQQIGRIQLRQLTDGQHQVYLPTGMALDLNGYVKGWCAMQLAEHISRVHDWHIPCLVDMGGDIAIGIPRDPIDKPVTWGVAVAKPYFANSKHVQNDEDVAILKLSSGAVATSGQDYRRWWHDGRWQHHLIHPHDSRPVTSDVLTATVLATDTMTAEVYAKYCLLLGVKVAMAWLNKYHIAALLIDTDNKVMATSAIRPHLLQPNVVKSNVMSI", "soluble on expression in E. coli": "not soluble"}, {"sequence": "MLQLKNIGILSTYNSKTDSFDYLKNCNIDIENGIIIGLGDSNHNGDQVIDCNHKLVTPGFVDAHTHPVFVNGREKEFIERISGKSYQEISNKGGGINSSIIRVREIDEIDLLDLVIKRMDDFIYMGTTTIEAKTGYGLNTDSELKSLRVLENAHNKHKIDIFPTFLGAHSVPNEYNGDSNAYTDLLCNEMIPAVAKQGIAKFCDVFCEEEYFDCNQSRKILEKAVEYGLIPRMHTDEFSSIGGVKIASKINAISADHLMEISDEDIELLANSNTIAILLPGTTFFLGKTTYAPARKLIDKGVHVSIATDFNPGSCHIKSMPFIIGLSCIYLGLSIEEALKAATWSGACAINEQERIGSIEVGKKADLIIWDLDTIDQIPYNIINAPIVNVIKDGVPLITLD", "soluble on expression in E. coli": "soluble"}, {"sequence": "MIPNFRGFNKKTKKMYSIDGFKSSERKIYRCSLADDEFRSGRLETFHFVEDNLVEKCNRPPERFYRQKQVRKSDRRLMARQ", "soluble on expression in E. coli": "not soluble"}, {"sequence": "FLNTISTKDFKQKMADKTTGFVYVGRPTCEDCQAFQPILKKELEKRQPDQKMAYYNTDKASEKSRDDMIALLKKMDIDSVPTMVYLKDGKVASTYAATDEPAKLTNWMNKVSGEVSE", "soluble on expression in E. coli": "soluble"}, {"sequence": "MNRRMMLASAALLLAPLAAQAQTRDVSVTIYNSNLALVEDARPLDLKAGRQKLEFKDVSAAIRPETVSLSAPGVTILEQNFDYDLLTPDKLMEKAVGQKVKIVRTNPGDGKETTEVATVLAANQGVVLKIGDRIEVLRDDGVPTRVIFDKVPETLRARPTLSVSVEAAGAGTRQAKLSYLTSGLSWKADYVALFDEAKSTMDLQGWITLSNNSGTPFENARTQLVAGDVNQLNDGGYRSSRSPGMISAGTESGVGERVADYYVYPLPERTTIASNQNKQVGFLSAQGVTAKKVYEVREGWFTSQAEPTKAVVAIQFSNARLAGLGAQLPMGTMRVYMRDAAGDPKFVGENAIGHTPAGSELSIKTGEAFDVSGQATLVAESRVSKRLTRYEMKYLLRNAKDQPVTVELRQGGLGRDSTVKAESLKGRRIDAGTLGWSVPVPANGETVLTFTVETGWLEHHHHHH", "soluble on expression in E. coli": "soluble"}, {"sequence": "MAHHHHHHMLMCAGRKRFYFSLPSSRALKNIVKLPLLEREDKQKIIHIWKEKYQNDKYVVADHIHISKYEQIKNNCKNNSHFIIPQRNQNGYINFYSQFIDHKLLFITALEEYNKLRANSTPYVTLHFFDELKSREIILTKLNIVNNVITKNQAIKFYNYILSFYSDANYFPYVCKFNNDSRNFHYDAFIDKFKHLC", "soluble on expression in E. coli": "not soluble"}, {"sequence": "MTIDMRLRPPLQSWKSTAQFKEGTAYYPTRYGFPRPKSVGTQDIGDLLAEMDEADITWGVVMGRQSAPPHGIVPNEEISDFVRQHADRFVGFAGIDLRDIDKAVADLDGYARSDEFKGISIEPGAGFVPLYSDDPSLFPLYERAQELQLPLSITLSGYLSSMAGHPTSYGNPSPVATVARKFPRLKIVVSHAAWPNVMPMLEVAFLHDNVYVSPDLYMNHVHTPGAHEYINAAKFYLADRLLFGTAYPSRPLKESVAGFRQWDLDSELAEKILHRNAARLLGLELEHHHHHH", "soluble on expression in E. coli": "not soluble"}, {"sequence": "MTEDRLSAEDKKFLEVERALKEAALNPLRHATEELFGDFLKMENITEICYNGNKVVWVLKNNGEWQPFDVRDRKAFSLSRLMHFARCCASFKKKTIDNYENPILSSNLANGERVQIVLSPVTVNDETISISIRIPSKTTYPHSFFEEQGFYNLLDNKEQAISAIKDGIAIGKNVIVCGGTGSGKTTYIKSIMEFIPKEERIISIEDTEEIVFKHHKNYTQLFFGGNITSADCLKSCLRMRPDRIILGELRSSEAYDFYNVLCSGHKGTLTTLHAGSSEEAFIRLANMSSSNSAARNIKFESLIEGFKDLIDMIVHINHHKQCDEFYIKHR", "soluble on expression in E. coli": "soluble"}, {"sequence": "MSLKYEYCPICGKKLEKKYSYDEGDVPYCQKDKIMFFDVPKPCVLVAVIKGQEILLLKQEYTFKDSKILVSGYVANGETVEETVVREVKEEVGIIVEKPEYLGSYYFKPKELIMLTFMVRYVSGEITKSQEVDEAYWVNMRDVLQEMNEDKVGKDVVKKVFKRIGYNEEKYLHKEGHHHHHH", "soluble on expression in E. coli": "not soluble"}, {"sequence": "MENTENSVDSKSIKNLEPKIIHGSESMDSGISLDNSYKMDYPEMGLCIIINNKNFHKSTGMTSRSGTDVDAANLRETFRNLKYEVRNKNDLTREEIVELMRDVSKEDHSKRSSFVCVLLSHGEEGIIFGTNGPVDLKKITNFFRGDRCRSLTGKPKLFIIQACRGTELDCGIETDSGVDDDMACHKIPVDADFLYAYSTAPGYYSWRNSKDGSWFIQSLCAMLKQYADKLEFMHILTRVNRKVATEFESFSFDATFHAKKQIPCIVSMLTKELYFYH", "soluble on expression in E. coli": "soluble"}, {"sequence": "MAHHHHHHMRVSPNSLSEAASQLEQDRERDFFRLLYIVDRARRFLSIPVGNVDWRLTCDCLDDMNHRYADTGFLLGFTGGYVLRNRAGRTLLSRFWFSMYLGLVFYDWELRRTTRAPALEYWNSICTVDTEVGRIARVLHTPARFYEAAPMSTAFSGGPPPLPRGSSSSPSPAPHGASVRDWLWRYVSDTMSSVLLMTLCSHLFEGSSWRHRTSDNVEVTALVINSRFFHWKVFESCQVQRNETTEYNISLKWFPSFAASDSLRRSFQCRELILERSTLGGRLWYRTHFSLLRCLGLDSQ", "soluble on expression in E. coli": "not soluble"}, {"sequence": "VRPHWRDLETLRLAAQRFGDGDLSSRTRIFRRSDIRTLAQHFNQMADRIESLISNQRELTNAVSHELRTPISRLSFELEQLNKQVDAEVRHDLIEDMRADLGELEEMVSELLTYARLEHGNVGSHREIVDAASWLDSVVADVALEAEAAGVTCEISACQVEQIRIEPRFMARAVINLLRNAIRHAHSRVEIALLDQGDSCQIRVNDDGPGIPADARQKIFEPFSRLDDSRDRSTGGFGLGLAIVHRVAQWHGGYAEALETPQGGASFRLTWERPR", "soluble on expression in E. coli": "not soluble"}, {"sequence": "MTTHRRRPKHDPKESEQEILNAAKQFLNERPFRELTVDEVMRRTGLKRPAFYVHFRDKHDLALRLVQAIGQELFGIADRWLEGDNPQEDLRRALVGLVEVYMKHSHVLRAFAEAASGDERVNSIYRAFVQEFISAAAQHIREEQATGQIQKDIDIDETARALIWLEERYLSDVFGRMPPADPEVVIRVLQNIWISTLYGSN", "soluble on expression in E. coli": "soluble"}, {"sequence": "MAHHHHHHMSTVEELKFIWKFLFSHMNTEKSKEEICDEKKYEENIILLKKLMRTENIKFDQKYNAINILEKLKDIEDIQYEDILNDYAKNFLTFLKGSFEKVAEEIQINDKISFRRNELIKQDLNNKLQNLNHNYNLEYINLNKCLGTEDFESQLNASLKFNSLKDILSKLLKEMKDYEIQYNNLSDTDKFLDMKICELENYLNNTNQNS", "soluble on expression in E. coli": "not soluble"}, {"sequence": "MSLKIIILGAGQVGGTLAENLAGENNDITIVDTDSDRLRELQDKFDLRVVNGHGAHPKVLREAGAQDADMLVAVTNSDETNMVACQVAYSLFNTPNKVARIRSPAYLVERDRLFLPESVPVDHLIAPEQLVTDYVRRLIEYPGALQVVDFAGGKVGLVAVKAYYGGPLVGNALSTLRDHMPNIETRVAAIFRQGRSIRPQGTTIIEADDEVFFVAAAGHIRAVMSELQRLESPYRRIMIVGGGNIGAGLARQLEKRYSVKLIERNQKRAEQLSEVLENTIVFCGDAADQELLAEEHIDQIDVFIAVTNEDEANIMSALLAKKMGAKKTMVLIQRSAYVDLVQGGSIDIAISPQQATISALLTHVRRADIANVYSLRRGAAEAIEAIAHGDENTSKVVGKTVGELKLPPGTTIGAIVRGDEVLIAHDRTQIQQDDHVVMFLVDKKYIPEVERLFQPSPFFLEGHHHHHH", "soluble on expression in E. coli": "soluble"}]}]}
